The source of these data is article PMC7591262.

This assay addresses Wtf4^antidote-mCherry (S. kambucha). The experiment in a line: FRET or BRET. A general note: In BRET a luciferase serves as donor, and the signal depends on an acceptor being close.

Wtf4^poison-GFP (natural protein): the FRET (acceptor photobleaching) is 40%.
